Marks after values point to notes of the source that are not given here.
Tests used:
[1] = ref Geiser et al., 2016; cited from earlier work
Text: This finding is aligned with the pharmacokinetic properties of Fc-fusion proteins, in which neonatal Fc receptor (FcRn)-mediated recycling limits proteolytic catabolism and prolongs systemic residence ([Richter and Jacobsen, 2014]).

[2] = patients with T2DM; ref Gerstein et al., 2021; cited from earlier work
[3] = ref Yoon et al., 2020; cited from earlier work
Text: Gastrointestinal (GI) adverse events are the most frequent class-related tolerability issues with GLP-1 receptor agonists, and stepwise dose-escalation regimens are commonly used to mitigate these events ([U.S. Food and Drug Administration, 2014]; [Davies et al., 2022]). […] Efpeglenatide has shown an adverse event profile consistent with this drug class ([Yoon et al., 2020]; [Gerstein et al., 2021]). The model-derived effective half- ...

[4] = human, in vivo
Protocol: The population PK analysis was performed based on pooled data from one phase 1 and five phase 2 studies of efpeglenatide. […] Dosing regimens ranged from once weekly (QW) to every other week (Q2W) and once monthly (QM) subcutaneous administration.
The pooled dataset comprised six clinical studies (five studies in patients with T2DM and one study in obesity). A total of 3,596 plasma efpeglenatide concentration measurement were collected from 498 subjects across six clinical studies at prespecified time points.
All samples were analyzed at certified laboratories using validated analytical method. Serum concentrations of efpeglenatide were quantified using a validated Enzyme-Linked Immunosorbent Assay (ELISA) method.
For the PK analysis, 3,316 post-dose plasma concentrations above the lower limit of quantification (LLOQ) were used in the model estimation. All pre-dose concentrations before the first administration were excluded from the dataset. Post-dose samples below the limit of quantification (BLQ) were treated as missing (i.e., not included in the analysis). In total, 117 pre-dose samples (3.25%) and 153 post-dose samples (4.0%) were BLQ.
The base PK model evaluation was begun with a one-compartment disposition model with first-order elimination, with additional refinement to better characterize the absorption phase. […] The first one of the two divided doses was described as the first order absorption after bolus doses into depot compartment, capturing the first peak during the absorption phase. The second part of the dose was introduced to describe the second peak with time delay during absorption phase, which was described using a transit compartment model ([Savic et al., 2007]). […] After the absorption model was established, various compartment models were evaluated.
The transit compartment model describes the delay in absorption as the sequential passage of the drug through a chain of transit compartments, each connected by a first-order transit rate constant (Ktr). The number of transit compartments (n) and the mean transit time (MTT) were estimated from the data, with Ktr calculated as (n+1)/MTT. Drug exiting the final transit compartment entered the absorption compartment and was transferred to the central compartment via first-order absorption, as described by Equations 1–3.
The amount of drug administered subcutaneously (Asc) in the depot, central compartment (Ac) and peripheral compartment (Ap) were described using the following differential Equations 4–6: dAsc/dt=Dose·BIOA1+Dose·BIOA2·Ktr·t^n·e^−Ktr·t/2π·n^n+0.5·e^−n−ka·Asc (4) dAc/dt=ka·Asc−Ac/Vc·CL−Ac/Vc·Q+Ap/Vp·Q (5) dAp/dt=Ac/Vc·Q−Ap/Vp·Q (6)
To confine the estimated fraction values to the range between 0 and 1 and to allow implementation of interindividual variability, a logit transformation was applied. BIOA1 and BIOA2 represent the fractions of the administered dose entering the depot compartment via the bolus administration route and the delayed absorption route, respectively. The transformation was defined as shown in Equation 7 ([Adedokun et al., 2020]): BIOA1=e^BIOF/1+e^BIOF,BIOA2=1/1+e^BIOF (7) where BIOF is an unbounded parameter ( −∞∼∞ ) representing the logit-transformed value of BIOA1, and BIOA2 = 1-BIOA1
The population PK modeling analysis was performed using NONMEM version 7.5 (ICON Development Solutions, Hanover, MD, United States). The first-order conditional estimation method with interaction (FOCEI) was used to approximate the marginal likelihood and facilitate estimation of population model parameters.

| Substance | CL, clearance [1] [L/h] | Weight loss [2] | Clinically reported half-life [3] [h] | BIOA1, dose fraction absorbed via the first-order pathway [4] | BIOA2, dose fraction absorbed via the transit-compartment pathway [4] | BIOF, logit parameter expressing the fraction of dose absorbed via the first-order and transit pathway [4] | CL/F in T2DM, clearance for patients with T2DM [4] | CL/F in obesity, clearance for obesity [4] | Covariate effect (θ) of body weight on CL/F [4] | Covariate effect (θ) of body weight on ka [4] | Expected time to steady state [4] | Higher clearance (CL/F) in T2DM than in obesity [4] [%] | MTT, mean transit time [4] | Model-derived effective half-life [4] [h] | N, number of transit compartments [4] | VSS [4] | Q/F, inter-compartment clearance ([4]; sc) | VC/F, volume of the central compartment ([4]; sc) | VP/F, volume of the peripheral compartment ([4]; sc) | ka, absorption rate constant ([4]; sc) |
| --- | --- | --- | --- | --- | --- | --- | --- | --- | --- | --- | --- | --- | --- | --- | --- | --- | --- | --- | --- | --- |
| dulaglutide: another Fc-fusion GLP-1 receptor agonist | 0.059 | – | – | – | – | – | – | – | – | – | – | – | – | – | – | – | – | – | – | – |
| efpeglenatide | – | 6%–7% | 134 to 180 | 0.248 ^a | 0.752 ^b | −1.11 [27.59] | 0.044 [1.50] L/h | 0.032 [1.79] L/h | 0.964 [6.75] | −0.927 [14.24] | ≈ 4 weeks | 38 | 2.680 [13.47] hour | 140 to 170 | 5.520 [22.28] | ≈ 6.8 L | 0.073 [11.14] L/h | 2.80 [7.39] L | 3.96 [6.57] L | 0.006 [4.33] 1/h |

— publication PMC12702981, “Population pharmacokinetics of efpeglenatide in individuals with obesity and with type 2 diabetes” (Frontiers in Pharmacology, 2025)
